Data: patent US20240390508A1 (Takeda / Millennium, published 2024)

Biological target: T1, human transferrin receptor (hTfR) (human, UniProt P02786 89-760, limits assumed)
T1 construct: 0.5 uM hTfR solution immobilised on a Ni-NTA chip with EDC/NHS; source and construct are not described; also called human TfR
Experiment: SPR, hTfR immobilised on NTA chip, single cycle kinetics; A = KD less than 100 nM
Description: The various synthesized peptide-nucleic acid conjugates were tested for intermolecular interaction by surface plasmon resonance (SPR) of the peptide-nucleic acid conjugate with transferrin receptor (hTfR) using the method shown below. The specific test method is shown below.
NTA sensor chip (Global Life Science Technologies Japan Co., Ltd.) was inserted into Biacore T200 (Global Life Science Technologies Japan Co., Ltd.), prime operation was performed three times with running buffer: 10 mM HEPES pH 8.0 (Nacalai Tesque Co., Ltd.), 150 mM NaCl (Nacalai Tesque Co., Ltd.), 0.05% Tween 20 (Nacalai Tesque Co., Ltd.), 0.1% BSA (SIGMA-ALDRICH), and 1.0% DMSO (FUJIFILM Wako Pure Chemical Corporation), and equilibrated at a flow rate of 30 μL/min. 350 mM EDTA solution was reacted for 60 seconds at a flow rate of 10 μL/min, 0.5 mM NiCl₂ solution (Kishida Chemical) was reacted for 60 seconds at a flow rate of 10 μL/min, and the NTA sensor chip was washed with 3 mM EDTA solution (Nacalai Tesque Co., Ltd.) for 60 seconds at a flow rate of 10 μL/min. After mixing 50 μL each of 60 mM EDC solution (Global Life Science Technologies Japan Co., Ltd.) and 650 mM NHS solution (Global Life Science Technologies Japan Co., Ltd.), the mixture was reacted for 420 seconds at a flow rate of 10 μL/min. 150 μL of a 0.5 μM hTfR solution was prepared by diluting with a running buffer and reacted for 300 seconds at a flow rate of 10 μL/min to immobilize hTfR on the NTA sensor chip. After immobilization, capping was performed by reacting with a 1.0 M ethanolamine aqueous solution (Global Life Science Technologies Japan Co., Ltd.) at a flow rate of 10 μL/min for 420 seconds. A peptide-nucleic acid conjugate solution adjusted to 10 mM in DMSO solution was diluted with running buffer to a final concentration of […] peptide-nucleic acid conjugate solution, and 100 nM, 50 nM, 25 nM, 10 nM, 5 nM peptide-nucleic acid conjugate solutions were prepared. Using the aforementioned samples, the kinetics of the peptide against hTfR was obtained by SPR measurement.
The kinetics evaluation model was Single Cycle Kinetics, and curve fitting was performed using Biacore T200 Evaluation Software Version 3.0 (Global Life Science Technologies Japan Co., Ltd.).

T1 sequence (P02786 89-760 limits assumed): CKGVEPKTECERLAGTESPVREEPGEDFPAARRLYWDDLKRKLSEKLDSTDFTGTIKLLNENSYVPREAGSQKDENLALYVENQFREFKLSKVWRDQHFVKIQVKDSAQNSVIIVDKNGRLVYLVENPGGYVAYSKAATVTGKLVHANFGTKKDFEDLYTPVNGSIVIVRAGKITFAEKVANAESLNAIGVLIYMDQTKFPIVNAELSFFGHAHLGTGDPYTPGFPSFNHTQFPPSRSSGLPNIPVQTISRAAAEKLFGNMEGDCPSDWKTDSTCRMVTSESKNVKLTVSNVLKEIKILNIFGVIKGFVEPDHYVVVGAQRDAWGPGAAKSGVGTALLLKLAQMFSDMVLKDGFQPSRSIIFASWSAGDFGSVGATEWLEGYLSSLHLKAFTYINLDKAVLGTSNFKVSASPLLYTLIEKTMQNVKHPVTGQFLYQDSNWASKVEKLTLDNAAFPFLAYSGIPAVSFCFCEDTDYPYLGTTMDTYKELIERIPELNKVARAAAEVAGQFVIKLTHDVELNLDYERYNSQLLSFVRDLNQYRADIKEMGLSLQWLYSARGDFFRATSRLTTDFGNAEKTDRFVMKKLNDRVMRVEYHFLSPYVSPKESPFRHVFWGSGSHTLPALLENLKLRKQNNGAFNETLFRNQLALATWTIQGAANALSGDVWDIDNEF

| Kd [nM] | Binder |
| --- | --- |
| < 100 | AVFVWNYYIIRRYYC (MeF at 3, MeY at 14 (N-methyl); thioether ring from N-terminal chloroacetyl-Ala to Cys 15; C-terminal Gly-KN3-NH2, azide joined to BCN on the oligonucleotide, also called A2/C19) [peptide-HDO conjugate of Example 24 (first nucleic acid strand A2, second nucleic acid strand C19)] |
| < 100 | AVFVWNYYIIRRYYC (MeF at 3, MeY at 14 (N-methyl); thioether ring from N-terminal chloroacetyl-Ala to Cys 15; C-terminal Gly-KN3-NH2, azide joined to BCN on the oligonucleotide, also called A2/C32) [peptide-HDO conjugate of Example 40 (first nucleic acid strand A2, second nucleic acid strand C32)] |
| < 100 | AVFVWNYYIIRRYYC (MeF at 3, MeY at 14 (N-methyl); thioether ring from N-terminal chloroacetyl-Ala to Cys 15; C-terminal Gly-KN3-NH2, azide joined to BCN on the oligonucleotide, also called A2/C13) [peptide-HDO conjugate of Example 13 (first nucleic acid strand A2, second nucleic acid strand C13)] |
| < 100 | AVFVWNYYIIRRYYC (MeF at 3, MeY at 14 (N-methyl); thioether ring from N-terminal chloroacetyl-Ala to Cys 15; C-terminal Gly-KN3-NH2, azide joined to BCN on the oligonucleotide, also called A2/C30) [peptide-HDO conjugate of Example 38 (first nucleic acid strand A2, second nucleic acid strand C30)] |
| < 100 | AVFVWNYYIIRRYYC (MeF at 3, MeY at 14 (N-methyl); thioether ring from N-terminal chloroacetyl-Ala to Cys 15; C-terminal Gly-KN3-NH2, azide joined to BCN on the oligonucleotide, also called A1/C27) [peptide-HDO conjugate of Example 27 (first nucleic acid strand A1, second nucleic acid strand C27)] |
| < 100 | AVFVWNYYIIRRYYC (MeF at 3, MeY at 14 (N-methyl); thioether ring from N-terminal chloroacetyl-Ala to Cys 15; C-terminal Gly-KN3-NH2, azide joined to BCN on the oligonucleotide, also called A1/C18) [peptide-HDO conjugate of Example 18 (first nucleic acid strand A1, second nucleic acid strand C18)] |
| < 100 | AVFVWNYYIIRRYYC (not fully specified; MeF at 3, MeY at 14 (N-methyl); thioether ring from N-terminal chloroacetyl-Ala to Cys 15; C-terminal Gly-KN3-NH2, azide joined to BCN on the oligonucleotide, also called A1/C9) [peptide-HDO conjugate of Example 9 (first nucleic acid strand A1, second nucleic acid strand C9)] |
| < 100 | AVFVWNYYIIRRYYC (MeF at 3, MeY at 14 (N-methyl); thioether ring from N-terminal chloroacetyl-Ala to Cys 15; C-terminal Gly-KN3-NH2, azide joined to BCN on the oligonucleotide, also called A1/C6) [peptide-HDO conjugate of Example 6 (first nucleic acid strand A1, second nucleic acid strand C6)] |
| < 100 | AVFVWNYYIIRRYYC (MeF at 3, MeY at 14 (N-methyl); thioether ring from N-terminal chloroacetyl-Ala to Cys 15; C-terminal Gly-KN3-NH2, azide joined to BCN on the oligonucleotide, also called A2/C11) [peptide-HDO conjugate of Example 11 (first nucleic acid strand A2, second nucleic acid strand C11)] |
| < 100 | AVFVWNYYIIRRYYC (MeF at 3, MeY at 14 (N-methyl); thioether ring from N-terminal chloroacetyl-Ala to Cys 15; C-terminal Gly-KN3-NH2, azide joined to BCN on the oligonucleotide, also called A1/C19) [peptide-HDO conjugate of Example 19 (first nucleic acid strand A1, second nucleic acid strand C19)] |
| < 100 | AVFVWNYYIIRRYYC (MeF at 3, MeY at 14 (N-methyl); thioether ring from N-terminal chloroacetyl-Ala to Cys 15; C-terminal Gly-KN3-NH2, azide joined to BCN on the oligonucleotide, also called A1/C47) [peptide-HDO conjugate of Example 47 (first nucleic acid strand A1, second nucleic acid strand C47)] |
| < 100 | AVFVWNYYIIRRYYC (MeF at 3, MeY at 14 (N-methyl); thioether ring from N-terminal chloroacetyl-Ala to Cys 15; C-terminal Gly-KN3-NH2, azide joined to BCN on the oligonucleotide, also called A1/C7) [peptide-HDO conjugate of Example 7 (first nucleic acid strand A1, second nucleic acid strand C7)] |
| < 100 | AVFVWNYYIIRRYYC (MeF at 3, MeY at 14 (N-methyl); thioether ring from N-terminal chloroacetyl-Ala to Cys 15; C-terminal Gly-KN3-NH2, azide joined to BCN on the oligonucleotide, also called A2/C42) [peptide-HDO conjugate of Example 43 (first nucleic acid strand A2, second nucleic acid strand C42)] |
| < 100 | AVFVWNYYIIRRYYC (MeF at 3, MeY at 14 (N-methyl); thioether ring from N-terminal chloroacetyl-Ala to Cys 15; C-terminal Gly-KN3-NH2, azide joined to BCN on the oligonucleotide, also called A2/C47) [peptide-HDO conjugate of Example 48 (first nucleic acid strand A2, second nucleic acid strand C47)] |
| < 100 | AVFVWNYYIIRRYYC (MeF at 3, MeY at 14 (N-methyl); thioether ring from N-terminal chloroacetyl-Ala to Cys 15; C-terminal Gly-KN3-NH2, azide joined to BCN on the oligonucleotide, also called A2/C15) [peptide-HDO conjugate of Example 15 (first nucleic acid strand A2, second nucleic acid strand C15)] |
| < 100 | AVFVWNYYIIRRYYC (MeF at 3, MeY at 14 (N-methyl); thioether ring from N-terminal chloroacetyl-Ala to Cys 15; C-terminal Gly-KN3-NH2, azide joined to BCN on the oligonucleotide, also called A1/C2) [peptide-HDO conjugate of Example 2 (first nucleic acid strand A1, second nucleic acid strand C2)] |
| < 100 | AVFVWNYYIIRRYYC (MeF at 3, MeY at 14 (N-methyl); thioether ring from N-terminal chloroacetyl-Ala to Cys 15; C-terminal Gly-KN3-NH2, azide joined to BCN on the oligonucleotide, also called A2/C28) [peptide-HDO conjugate of Example 36 (first nucleic acid strand A2, second nucleic acid strand C28)] |
| < 100 | AVFVWNYYIIRRYYC (MeF at 3, MeY at 14 (N-methyl); thioether ring from N-terminal chloroacetyl-Ala to Cys 15; C-terminal Gly-KN3-NH2, azide joined to BCN on the oligonucleotide, also called A1/C28) [peptide-HDO conjugate of Example 28 (first nucleic acid strand A1, second nucleic acid strand C28)] |
| < 100 | AVFVWNYYIIRRYYC (MeF at 3, MeY at 14 (N-methyl); thioether ring from N-terminal chloroacetyl-Ala to Cys 15; C-terminal Gly-PEG4c-KN3-NH2, azide joined to BCN on the oligonucleotide, also called A2/C49) [peptide-HDO conjugate of Example 52 (first nucleic acid strand A2, second nucleic acid strand C49)] |
| < 100 | AVFVWNYYIIRRYYC (MeF at 3, MeY at 14 (N-methyl); thioether ring from N-terminal chloroacetyl-Ala to Cys 15; C-terminal Gly-KN3-NH2, azide joined to BCN on the oligonucleotide, also called A1/C30) [peptide-HDO conjugate of Example 30 (first nucleic acid strand A1, second nucleic acid strand C30)] |
| < 100 | AVFVWNYYIIRRYYC (MeF at 3, MeY at 14 (N-methyl); thioether ring from N-terminal chloroacetyl-Ala to Cys 15; C-terminal Gly-KN3-NH2, azide joined to BCN on the oligonucleotide, also called A2/C29) [peptide-HDO conjugate of Example 37 (first nucleic acid strand A2, second nucleic acid strand C29)] |
| < 100 | Y14-PMO conjugate of Example 61 (not fully specified; N-terminal 4-pentynoyl-AEEA; ivDde groups on the three Lys removed with hydrazine; C-terminal Gly coupled to PMO A4; MeF at 3, MeY at 14 (N-methyl); thioether ring from N-terminal chloroacetyl-Ala to Cys 15; C-terminal Gly-KN3-NH2, azide joined by copper-catalysed click to the 4-pentynoyl group of the linker …) peptide: AVFVWNYYIIRRYYC KKKG |
| < 100 | AVFVWNYYIIRRYYC (MeF at 3, MeY at 14 (N-methyl); thioether ring from N-terminal chloroacetyl-Ala to Cys 15; C-terminal Gly-KN3-NH2, azide joined to BCN on the oligonucleotide, also called A2/C4) [peptide-HDO conjugate of Example 14 (first nucleic acid strand A2, second nucleic acid strand C4)] |
| < 100 | AVFVWNYYIIRRYYC (MeF at 3, MeY at 14 (N-methyl); thioether ring from N-terminal chloroacetyl-Ala to Cys 15; C-terminal Gly-KN3-NH2, azide joined to BCN on the oligonucleotide, also called A1/C4) [peptide-HDO conjugate of Example 4 (first nucleic acid strand A1, second nucleic acid strand C4)] |
| < 100 | AVFVWNYYIIRRYYC (MeF at 3, MeY at 14 (N-methyl); thioether ring from N-terminal chloroacetyl-Ala to Cys 15; C-terminal Gly-KN3-NH2, azide joined to BCN on the oligonucleotide, also called A2/C33) [peptide-HDO conjugate of Example 41 (first nucleic acid strand A2, second nucleic acid strand C33)] |
| < 100 | AVFVWNYYIIRRYYC (not fully specified; MeF at 3, MeY at 14 (N-methyl); thioether ring from N-terminal chloroacetyl-Ala to Cys 15; C-terminal Gly-KN3-NH2, azide joined to BCN on the oligonucleotide, also called A4/C55) [peptide-HDO conjugate of Example 55 (first nucleic acid strand A4, second nucleic acid strand C55)] |
